# Measured values published in patent publication US20240336909.
# Key:
# [1] = system: AxCT mask27 EGFR EH104 L001 version 1
# [2] = system: AxCT mask27 EGFR EH104 L040 version 1
# [3] = system: AxCT mask27 EGFR EH104 L041 version 1
# [4] = system: AxCT mask27 EGFR EH104 L043 version 1
# [5] = system: AxCT mask27 EGFR EH104 L054 version 1
# [6] = system: AxCT mask27 EGFR EH104 L055 version 1
# [7] = system: AxCT mask27 EGFR EH104 L056 version 1
# [8] = system: AxCT mask27 EGFR EH104 L057 version 1
# [9] = system: AxCT mask27 EGFR EH104 L058 version 1
# [10] = system: AxCT mask27 EGFR EH104 L059 version 1
# [11] = system: AxCT mask27 EGFR EH104 L060 version 1
# [12] = system: AxCT mask27 EGFR EH104 L061 version 1
# [13] = system: AxCT mask27 EGFR EH104 L062 version 1
# [14] = system: AxCT mask27 EGFR EH104 L063 version 1
# [15] = system: AxCT mask27 EGFR EH104 L064 version 1
# [16] = system: AxCT mask27 EGFR EH104 L065 version 1
# [17] = system: AxCT mask27 EGFR EH104 L066 version 1
# [18] = system: AxCT mask27 EGFR EH104 L067 version 1
# [19] = system: AxCT mask27 EGFR EH104 L068 version 1
# [20] = system: AxCT mask27 EGFR EH104 L069 version 1
# [21] = system: AxCT mask27 EGFR EH104 L070 version 1
# [22] = system: AxCT mask27 EGFR EH104 L071 version 1
# [23] = system: AxCT mask27 EGFR EH104 L072 version 1
# [24] = system: AxCT mask27 EGFR EH104 L073 version 1
# [25] = system: AxCT mask27 EpCAM H90 L001 version 1
# [26] = system: AxCT mask27 EpCAM H90.2 L040 version 1
# [27] = system: AxCT mask27 EpCAM H90.2 L041 version 1
# [28] = system: AxCT mask27 EpCAM H90.2 L043 version 1
# [29] = system: AxCT mask27 EpCAM H90.2 L059 version 1
# [30] = system: AxCT mask27 EpCAM H90.2 L060 version 1
# [31] = system: AxCT mask27 EpCAM H90.2 L061 version 1
# [32] = system: AxCT mask27 EpCAM H90.2 L063 version 1
# [33] = system: AxCT mask27 EpCAM H90.2 L064 version 1
# [34] = system: AxCT mask27 EpCAM H90.2 L073 version 1
# [35] = system: AxCT mask27 EpCAM H90.2 L075 version 1
# [36] = system: AxCT mask27 EpCAM H90.2 L076 version 1
# [37] = system: AxCT mask27 EpCAM H90.2 NCLV
# Sequence of MMP-8 (chain, as listed by the source): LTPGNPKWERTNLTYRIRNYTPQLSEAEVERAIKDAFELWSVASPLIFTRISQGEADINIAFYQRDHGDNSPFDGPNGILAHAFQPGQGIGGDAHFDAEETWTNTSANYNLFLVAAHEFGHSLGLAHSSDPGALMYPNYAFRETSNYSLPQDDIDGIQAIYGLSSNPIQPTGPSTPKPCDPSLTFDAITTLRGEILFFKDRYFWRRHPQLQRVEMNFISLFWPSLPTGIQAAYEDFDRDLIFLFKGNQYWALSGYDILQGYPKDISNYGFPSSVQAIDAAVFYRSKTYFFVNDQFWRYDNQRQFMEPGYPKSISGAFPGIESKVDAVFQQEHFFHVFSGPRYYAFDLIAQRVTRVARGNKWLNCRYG
# Sequence of MMP-9 (chain, as listed by the source): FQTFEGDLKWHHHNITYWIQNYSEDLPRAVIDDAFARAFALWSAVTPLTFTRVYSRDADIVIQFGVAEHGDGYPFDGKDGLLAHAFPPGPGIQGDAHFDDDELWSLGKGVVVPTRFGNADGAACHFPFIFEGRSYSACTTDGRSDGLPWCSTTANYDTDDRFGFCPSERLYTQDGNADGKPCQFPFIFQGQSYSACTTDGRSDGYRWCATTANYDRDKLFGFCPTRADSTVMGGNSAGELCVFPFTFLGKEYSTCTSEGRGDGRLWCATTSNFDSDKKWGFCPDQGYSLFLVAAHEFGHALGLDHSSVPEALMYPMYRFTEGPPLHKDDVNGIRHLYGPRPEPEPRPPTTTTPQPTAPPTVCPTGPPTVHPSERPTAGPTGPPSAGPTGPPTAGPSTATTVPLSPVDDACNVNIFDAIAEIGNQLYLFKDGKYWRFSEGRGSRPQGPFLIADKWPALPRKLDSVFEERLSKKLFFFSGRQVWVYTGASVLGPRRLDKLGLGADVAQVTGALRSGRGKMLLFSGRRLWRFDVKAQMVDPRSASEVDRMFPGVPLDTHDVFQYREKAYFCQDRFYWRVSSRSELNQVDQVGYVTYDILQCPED
Substance,Percent cleavage [1],Percent cleavage [2],Percent cleavage [3],Percent cleavage [4],Percent cleavage [5],Percent cleavage [6],Percent cleavage [7],Percent cleavage [8],Percent cleavage [9],Percent cleavage [10],Percent cleavage [11],Percent cleavage [12],Percent cleavage [13],Percent cleavage [14],Percent cleavage [15],Percent cleavage [16],Percent cleavage [17],Percent cleavage [18],Percent cleavage [19],Percent cleavage [20],other results
MMP-8,44%,6%,0%,0%,8%,29%,7%,11%,0%,18%,0%,15%,6%,0%,7%,18%,0%,13%,0%,16%,Percent cleavage [21]: 0%; Percent cleavage [22]: 20%; Percent cleavage [23]: 0%; Percent cleavage [24]: 0%; Percent cleavage [25]: 61%; Percent cleavage [26]: 0%; Percent cleavage [27]: 0%; Percent cleavage [28]: 0%; Percent cleavage [29]: 25%; Percent cleavage [30]: 0%; Percent cleavage [31]: 25%; Percent cleavage [32]: 0%; Percent cleavage [33]: 8%; Percent cleavage [34]: 0%; Percent cleavage [35]: 0%; Percent cleavage [36]: 0%; Percent cleavage [37]: 0%
MMP-9,74%,63%,59%,20%,9%,75%,52%,57%,27%,32%,7%,54%,63%,21%,13%,70%,29%,50%,19%,29%,Percent cleavage [21]: 0%; Percent cleavage [22]: 46%; Percent cleavage [23]: 51%; Percent cleavage [24]: 11%; Percent cleavage [25]: 80%; Percent cleavage [26]: 60%; Percent cleavage [27]: 57%; Percent cleavage [28]: 7%; Percent cleavage [29]: 19%; Percent cleavage [30]: 0%; Percent cleavage [31]: 36%; Percent cleavage [32]: 8%; Percent cleavage [33]: 0%; Percent cleavage [34]: 0%; Percent cleavage [35]: 0%; Percent cleavage [36]: 17%; Percent cleavage [37]: 0%
